The text below walks through data of the nanobody polyreactivity screen of Harvey et al. (2022).

This data set can be described thus: yeast display, Sf9 membrane polyspecificity reagent, FACS + sequencing; frameworks hold sequencing errors. A digest of the protocol: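 Polyreactivity labels are assigned by the sorting gate from which each nanobody was recovered. The gates were low and high (top ~1%), set on anti-HA fluorescence for expression and streptavidin fluorescence for reagent binding. Before sorting, galactose-induced (36–48 hours) yeast display cells were stained for 1 hour at 4 °C with 10% biotinylated, detergent-solubilized Sf9 membrane reagent.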
Consider “QVQLQESGGGLVQAGGSPRLSCAASDNIFPDSVMCWYRQAPGKERELVATIGFGATTNYADSVKGRFTISRDNAKNTVYLQMNSLKPEDTAVYYCAADPLNYEYFCYGGQGTQVTVSS”, for which the “polyreactivity (PSR sort gate)” value was “low polyreactivity”.

Take “QVQLVESGGGLVQAGGSLRLSCAASGSTYSYYAMGWYRQAPGKERELVAAITSSGSSTYYADSVKARFTISRDNAKNTVYLPMISLKPEDPAVYYCAAGRYRYTYRYFTAWYGYWGQGTQVTVSS”: the “polyreactivity (PSR sort gate)” value was “high polyreactivity”. The result for “QLQLVESGGGLDQAGGSLRLSCAASGFTFVSYAMGWYRQAPGKERELVAVISYRAGSTYYADSVKGRFTISRDNAKNTVYLQMYSLKPEDTAVYYCATDRYSRRNDYWGQGTQVTVSS” reads “high polyreactivity”; that for “QVQLVESGGGLVQAGGSLRLSCAASGIIFFRNAMGWYRQAPGKERELVAAIRWSGGSSYYADSVKGRYTISRDNAKNTVYLQINSLKPEDTAVYYCNAVTVYKHGSWGQGTQVTVSS”, “high polyreactivity”. The same measure for “QVQLVETGGGLVQAGGSLRISCAASGFTISFYAMAWYRHAPGKERELVAAISSGGRTSYADSVKGRFTISRDNAKNTVYLQMNSLTPEATAVYYCAATNRWYYRAAAAVYAFGYWGHGTQVTVSS”: “high polyreactivity”. The result for “QVQLVESGGGLVQAGGSLRLSCAACGFTFQYYAMGWYRQAPGKVRELVATITTSGGNTYYADSVKGRFTISRDNAKNTVYLQMNSLKPEDTAVYYCAARSYRASSRGYVYWGQGTQVTVSS” reads “high polyreactivity”; that for “QVQLVESGGGLVQAGGSLRLSCAASGSIYINARGWYRQAPGKERELVAAISSGGSTNYADSVKGRFTISRDNAKNTVYLQMNSLKPEDTAVFYCATRRYRGPWYRNAYDYWGQGTQVTVSS”, “low polyreactivity”; that for “QVQLVESGGGLVQAGGSLRLSCAASGSTFKYYAMGWYRQAPGKERELVAAISRRGGSTYYADSVKGRFTISRDNAKNTVYLQMNSLKPEDTAVYYCAARLPGYYGIGDYWGQGTQVTVSS”, “high polyreactivity”.

Consider “QVQRVESGGGLVQAGGSLRLSCAASGITFGEYAMGWYSPAPGNERELVAGINWSGDGTYYADSVKGRFTISRDNEKNTVYLQMNSLKPEDTAVYYCAVDPGGGNYIYYYNEYYYWGQGTQVTLSS”, for which the “polyreactivity (PSR sort gate)” value is “low polyreactivity”. With “QVQLVESGGGLVQAGGSLRLSCAASGFNSDWYAMGWSRQAPGKERELVATIDWIGGSTYADSVKGRFTISRDNAKNTVFLQMNSLKPEDTAVYYCAADSYFIAWYGAHYAYDYWGQGTQVTVSS”, the “polyreactivity (PSR sort gate)” value was “low polyreactivity”. The result for “QVQLVESGGGLVQAGGSLRLSCAASGGTFAYYTMGWYRQAPGKERELVAAISSGGRTNYADSVKGRFTISRDNAKNTVYLQMNSLKPEDTAVYYCAAESPLVYYSYPAYYKYYEYEYWGQGTQVTVSS” reads “low polyreactivity”. “QVQLVESGGGLVQAGGSLRLSCAASGSTFYKYAMGWYRQAPGKERELVAVITKSGGSTYYADSVKGRFTISRDNEKNTVYLQMNSLKPEDTAVYYCAAEDHYGYNSGYDYWGQGTQVTVSS”: the “polyreactivity (PSR sort gate)” value is given as “high polyreactivity”. Take “QVQLVESGGVLVQAGGSLRLSCAASGRIFSAYAMGWYRPAPGKERDLVAAITSVGSTKYADYVKGRFTISRDNAKNTVYLQMNSLKPQDTAVYYCAAEYTRSFYIYYRFGYWGQGTQVTVSS”: the “polyreactivity (PSR sort gate)” value is given as “high polyreactivity”.

Regarding “QVQHVESGGGLVQAGGSLRLSCAASGSIFNRYAMGWYRQAPGKERELVAAITYNGGSTYYADSVKGRFTISRDNAKNTVYLQMNSLKPEDTAVYYCAAERYNGYDYWGQGTQVTVSS”, the “polyreactivity (PSR sort gate)” value is given as “high polyreactivity”. The same measure for “QVQLVESGGGLVQAGGSLRLSCAASGYIINYNAMGWYRQAPGKERELVAAISSRGGSTYYADSVKGRFTISRDNAKNTVYLQMNSLKPEDTAVYYCNARYYSWYQRYDRRRGYDYWGQGTQVTVSS”: “low polyreactivity”; for “QVQLVESGGGLVQAGGSLRLSCAASGRIFNKNAMGWYRQAPGKERELVAAITYSGGSTYYADSVKGRFTISRDNAKNTVYLQMNSLKPEDTAVYYCARDLYYVYSFAPYRYEYWGQGTQLTVSS”: “low polyreactivity”. The result for “QVQLVESGAGLVHAGGSLRLSCAASGSIFEGYAMGWYRQAPGKERELVARITSDDDSTYYADSVKGRFTNSRDTAKNTVYLQMYSLKPEDTAVFYCNADYYWTTLAMDSWGQGTQVTVSS” reads “low polyreactivity”. Consider “QVQLVESGGGLLQAGGSLRLSCAASGRNFRLYPMGWYRQAPGTERDFLAAITFSGGRTYYADSVKGRFTISRDNAKNTVYLQMKSLKPEDTAVYYCAARGQTGYYSGVGYWGLGTQVTVSS”, for which the “polyreactivity (PSR sort gate)” value is “high polyreactivity”. The result for “QVQLVESGGGLVQAGGSRRLSCAASGGTFPFNAMGWYSPAPGKERELVAAITFTTSSTYYADSVKGRFTMSRDNAKNTVYLQMTSLKPEDTAVDYCAVDYGWYSAYYRESDYWGQGTQVTVSS” reads “low polyreactivity”; that for “QVQLEESGGGFVQAGGCLRLSCAASGRIFYGYAMGWYRQAPGKERELVAAITRSSSTYYADSVKGRFTISRDNAKNTVYLQMNSQKPEDTAVYYCAAVMYATRPVYGFESWGLGTQVTVSS”, “high polyreactivity”.

Consider “QVQLVESGGGLVQAGGSLRLSCAASGYILFAYAMGWYRQAPGKERELVATITTSGGITYYADSVKGRFTISRDNAKNTVYLQMNSLKPEDTAVYYCAAAEGGGLVTYDYWGQGTQVTVSS”, for which the “polyreactivity (PSR sort gate)” value was “low polyreactivity”. The result for “LVQLQESGGGLVQEGGSLRMSCAASGTISPGGYMGWYRQAPGKERELVASINVGGSTNYADSVKGRFTISRDNAKNTVYLQMNSLKPEDNAVYYCAVWGRNRLQLSYWGQGTQVTVSS” reads “low polyreactivity”. The result for “QDQLVESGGGLVQAGGSLSLSCAASRFIYLTYAMGWSRQAPGKERELVAAISSRGGSTYYADSVKGRFTISRDNAKNTVYLQMNSLKPEDTAVYYCAYTRGKYDYWGQGTQVTVSS” reads “high polyreactivity”; that for “QVQLVHSGGGLVQEGGSLRLSCAASGSIFYSYGMGWYRQAPGKERELVAAITSSGGGTYYADSVKGRFTISRDNAKNNVYLQMNSVKAEDTAVYYCAADDRNYNYYPTFYYWGQGTQVTVSS”, “low polyreactivity”. The same measure for “HVQLVESGGGLVQAGGSLRLICAASGGTFAGYSMGWYRQAPGKDRELVAAITYRSSTTYYADSVKGRFTISRDNAKNTVYLQMNSLKPEDTAVYYCAARTRGTGRNLDYWGQGTQVNVSS”: “high polyreactivity”; for “QVQLVESGGGLVQAGGSLRLSCAASGRTVVTNAMGWYRQAPGKERELVATINWSGGRTHYADSVKGRFTISRDNAKITVYLQMNSLIPEDTAVYYCAKASSRRYWTIRDGDYWGQGTQVTVAS”: “low polyreactivity”. Consider “QVQLVESGGGLVQAGGSLRLSCAASGRIFRYYAMGWYRQAPGKERELVAAISSGGSTYYADSVKGRFTISRDNAKNTVYLQMNSLKQEDTAVYYCAADRRYSYNWGHGTQVTVSS”, for which the “polyreactivity (PSR sort gate)” value was “high polyreactivity”.

Turning to “QVQLVESGGGLDQAGASLRLSCAASGSIFVPYTMGWYRQAPGKERELVASISYSGGTTYYADSVKGRFTISRDNAKYTVYLQMNSLKPEDTAVYYCAADWDDSYSYRRYRHYDYWGQGTQVTVSS”, the “polyreactivity (PSR sort gate)” value is reported as “low polyreactivity”. Take “QVQLVESGGGLVQAGGSLRLSCAASGLTIAYYDMGWYRPAPGKERELVARISRGGSTNYADSVKGRFTISRDNAKNTVYLQMNSLKPEDTAVYYCNTGYVYPYKILMDYWGQGTQVTVSS”: the “polyreactivity (PSR sort gate)” value is listed as “low polyreactivity”. The result for “QVQLVESGGGLVQAGGSLRLSCAASGSTFRYYAKGWYRQAPGKERELVAAINYGGGRTYYADSVKGRFTISRDIAKNTVYLQMNSLKPEDTAVYYCATGYYYYRFYTYGYWGQGTQVTVSS” reads “high polyreactivity”.
